Values of other authors in PMC3786701.

Target: SNARE complex (Rattus norvegicus) (UniProt P32851)
Chain of UniProt P32851 (P32851 whole entry, chain 1 of 3): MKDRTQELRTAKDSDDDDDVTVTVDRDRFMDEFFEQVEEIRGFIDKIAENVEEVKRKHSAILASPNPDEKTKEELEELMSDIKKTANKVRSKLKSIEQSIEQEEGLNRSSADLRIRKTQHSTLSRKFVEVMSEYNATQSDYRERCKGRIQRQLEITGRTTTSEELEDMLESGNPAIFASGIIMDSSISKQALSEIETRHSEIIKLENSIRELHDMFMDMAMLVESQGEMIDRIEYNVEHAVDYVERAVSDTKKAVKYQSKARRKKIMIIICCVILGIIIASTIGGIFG
Chain of UniProt P32851 (B2RAU4 whole entry, chain 2 of 3, further chain): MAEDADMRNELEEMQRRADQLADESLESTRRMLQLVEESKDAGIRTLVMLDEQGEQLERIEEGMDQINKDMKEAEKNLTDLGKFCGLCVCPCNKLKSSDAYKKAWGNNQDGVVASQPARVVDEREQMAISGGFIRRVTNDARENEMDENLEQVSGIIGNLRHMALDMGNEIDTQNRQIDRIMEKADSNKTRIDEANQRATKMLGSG
Chain of UniProt P32851 (P63044 2-116, chain 3 of 3, further chain): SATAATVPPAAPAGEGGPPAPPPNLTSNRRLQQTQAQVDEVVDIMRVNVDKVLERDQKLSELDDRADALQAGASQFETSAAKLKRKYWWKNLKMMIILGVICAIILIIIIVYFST

For “synaptotagmin-1 C2AB (from UniProt P21707)”, the Kd is listed as 1000 nM.
